The labels stand for the following.
B1: h10A11 (IGKV4-1/IGHV3-73 K64R): humanized 10A11 heavy chain CDR point mutant (antibody, V domains shown)
VL: DIVMTQSPDSLAVSLGERATINCRSSKSLLHSNGNTYLYWYQQKPGQPPKLLIYRMSNLASGVPDRFSGSGSGTDFTLTISSLQAEDVAVYYCMQHLEYPLTFGQGTKLEIKRT
VH: EVQLVESGGGLVQPGGSLKLSCAASGFAFNTYALYWVRQASGKGLEWVGRIRSKSNNYATYYADSVRDRFTISRDDSKNTAYLQMNSLKTEDTAVYYCTRARFYYSDYGYAMDYWGQGTLVTVSS
B2: h10A11 (IGKV4-1/IGHV3-73 D65E): humanized 10A11 heavy chain CDR point mutant (antibody, V domains shown)
VL: DIVMTQSPDSLAVSLGERATINCRSSKSLLHSNGNTYLYWYQQKPGQPPKLLIYRMSNLASGVPDRFSGSGSGTDFTLTISSLQAEDVAVYYCMQHLEYPLTFGQGTKLEIKRT
VH: EVQLVESGGGLVQPGGSLKLSCAASGFAFNTYALYWVRQASGKGLEWVGRIRSKSNNYATYYADSVKERFTISRDDSKNTAYLQMNSLKTEDTAVYYCTRARFYYSDYGYAMDYWGQGTLVTVSS
B3: h10A11 (IGKV4-1/IGHV3-73 D100aE): humanized 10A11 heavy chain CDR point mutant (antibody, V domains shown)
VL: DIVMTQSPDSLAVSLGERATINCRSSKSLLHSNGNTYLYWYQQKPGQPPKLLIYRMSNLASGVPDRFSGSGSGTDFTLTISSLQAEDVAVYYCMQHLEYPLTFGQGTKLEIKRT
VH: EVQLVESGGGLVQPGGSLKLSCAASGFAFNTYALYWVRQASGKGLEWVGRIRSKSNNYATYYADSVKDRFTISRDDSKNTAYLQMNSLKTEDTAVYYCTRARFYYSEYGYAMDYWGQGTLVTVSS
B4: h10A11 (IGKV4-1/IGHV3-73 F97L): humanized 10A11 heavy chain CDR point mutant (antibody, V domains shown)
VL: DIVMTQSPDSLAVSLGERATINCRSSKSLLHSNGNTYLYWYQQKPGQPPKLLIYRMSNLASGVPDRFSGSGSGTDFTLTISSLQAEDVAVYYCMQHLEYPLTFGQGTKLEIKRT
VH: EVQLVESGGGLVQPGGSLKLSCAASGFAFNTYALYWVRQASGKGLEWVGRIRSKSNNYATYYADSVKDRFTISRDDSKNTAYLQMNSLKTEDTAVYYCTRARLYYSDYGYAMDYWGQGTLVTVSS
B5: h10A11 (IGKV4-1/IGHV3-73 Y98F): humanized 10A11 heavy chain CDR point mutant (antibody, V domains shown)
VL: DIVMTQSPDSLAVSLGERATINCRSSKSLLHSNGNTYLYWYQQKPGQPPKLLIYRMSNLASGVPDRFSGSGSGTDFTLTISSLQAEDVAVYYCMQHLEYPLTFGQGTKLEIKRT
VH: EVQLVESGGGLVQPGGSLKLSCAASGFAFNTYALYWVRQASGKGLEWVGRIRSKSNNYATYYADSVKDRFTISRDDSKNTAYLQMNSLKTEDTAVYYCTRARFFYSDYGYAMDYWGQGTLVTVSS
B6: h10A11 (IGKV4-1/IGHV3-73 T31A): humanized 10A11 heavy chain CDR point mutant (antibody, V domains shown)
VL: DIVMTQSPDSLAVSLGERATINCRSSKSLLHSNGNTYLYWYQQKPGQPPKLLIYRMSNLASGVPDRFSGSGSGTDFTLTISSLQAEDVAVYYCMQHLEYPLTFGQGTKLEIKRT
VH: EVQLVESGGGLVQPGGSLKLSCAASGFAFNAYALYWVRQASGKGLEWVGRIRSKSNNYATYYADSVKDRFTISRDDSKNTAYLQMNSLKTEDTAVYYCTRARFYYSDYGYAMDYWGQGTLVTVSS
B7: h10A11 (IGKV4-1/IGHV3-73 A100eV): humanized 10A11 heavy chain CDR point mutant (antibody, V domains shown)
VL: DIVMTQSPDSLAVSLGERATINCRSSKSLLHSNGNTYLYWYQQKPGQPPKLLIYRMSNLASGVPDRFSGSGSGTDFTLTISSLQAEDVAVYYCMQHLEYPLTFGQGTKLEIKRT
VH: EVQLVESGGGLVQPGGSLKLSCAASGFAFNTYALYWVRQASGKGLEWVGRIRSKSNNYATYYADSVKDRFTISRDDSKNTAYLQMNSLKTEDTAVYYCTRARFYYSDYGYVMDYWGQGTLVTVSS
B8: h10A11 (IGKV4-1/IGHV3-73 M100fL): humanized 10A11 heavy chain CDR point mutant (antibody, V domains shown)
VL: DIVMTQSPDSLAVSLGERATINCRSSKSLLHSNGNTYLYWYQQKPGQPPKLLIYRMSNLASGVPDRFSGSGSGTDFTLTISSLQAEDVAVYYCMQHLEYPLTFGQGTKLEIKRT
VH: EVQLVESGGGLVQPGGSLKLSCAASGFAFNTYALYWVRQASGKGLEWVGRIRSKSNNYATYYADSVKDRFTISRDDSKNTAYLQMNSLKTEDTAVYYCTRARFYYSDYGYALDYWGQGTLVTVSS
B9: h10A11 (IGKV4-1/IGHV3-73 R96K): humanized 10A11 heavy chain CDR point mutant (antibody, V domains shown)
VL: DIVMTQSPDSLAVSLGERATINCRSSKSLLHSNGNTYLYWYQQKPGQPPKLLIYRMSNLASGVPDRFSGSGSGTDFTLTISSLQAEDVAVYYCMQHLEYPLTFGQGTKLEIKRT
VH: EVQLVESGGGLVQPGGSLKLSCAASGFAFNTYALYWVRQASGKGLEWVGRIRSKSNNYATYYADSVKDRFTISRDDSKNTAYLQMNSLKTEDTAVYYCTRAKFYYSDYGYAMDYWGQGTLVTVSS
B10: h10A11 (IGKV4-1/IGHV3-73 Y99F): humanized 10A11 heavy chain CDR point mutant (antibody, V domains shown)
VL: DIVMTQSPDSLAVSLGERATINCRSSKSLLHSNGNTYLYWYQQKPGQPPKLLIYRMSNLASGVPDRFSGSGSGTDFTLTISSLQAEDVAVYYCMQHLEYPLTFGQGTKLEIKRT
VH: EVQLVESGGGLVQPGGSLKLSCAASGFAFNTYALYWVRQASGKGLEWVGRIRSKSNNYATYYADSVKDRFTISRDDSKNTAYLQMNSLKTEDTAVYYCTRARFYFSDYGYAMDYWGQGTLVTVSS
B11: h10A11 (IGKV4-1/IGHV3-73 G100cA): humanized 10A11 heavy chain CDR point mutant (antibody, V domains shown)
VL: DIVMTQSPDSLAVSLGERATINCRSSKSLLHSNGNTYLYWYQQKPGQPPKLLIYRMSNLASGVPDRFSGSGSGTDFTLTISSLQAEDVAVYYCMQHLEYPLTFGQGTKLEIKRT
VH: EVQLVESGGGLVQPGGSLKLSCAASGFAFNTYALYWVRQASGKGLEWVGRIRSKSNNYATYYADSVKDRFTISRDDSKNTAYLQMNSLKTEDTAVYYCTRARFYYSDYAYAMDYWGQGTLVTVSS
B12: h10A11 (IGKV4-1/IGHV3-73 S100T): humanized 10A11 heavy chain CDR point mutant (antibody, V domains shown)
VL: DIVMTQSPDSLAVSLGERATINCRSSKSLLHSNGNTYLYWYQQKPGQPPKLLIYRMSNLASGVPDRFSGSGSGTDFTLTISSLQAEDVAVYYCMQHLEYPLTFGQGTKLEIKRT
VH: EVQLVESGGGLVQPGGSLKLSCAASGFAFNTYALYWVRQASGKGLEWVGRIRSKSNNYATYYADSVKDRFTISRDDSKNTAYLQMNSLKTEDTAVYYCTRARFYYTDYGYAMDYWGQGTLVTVSS
B13: h10A11 (IGKV4-1/IGHV3-73 Y100bF): humanized 10A11 heavy chain CDR point mutant (antibody, V domains shown)
VL: DIVMTQSPDSLAVSLGERATINCRSSKSLLHSNGNTYLYWYQQKPGQPPKLLIYRMSNLASGVPDRFSGSGSGTDFTLTISSLQAEDVAVYYCMQHLEYPLTFGQGTKLEIKRT
VH: EVQLVESGGGLVQPGGSLKLSCAASGFAFNTYALYWVRQASGKGLEWVGRIRSKSNNYATYYADSVKDRFTISRDDSKNTAYLQMNSLKTEDTAVYYCTRARFYYSDFGYAMDYWGQGTLVTVSS
B14: h10A11 (IGKV4-1/IGHV3-73 Y100dF): humanized 10A11 heavy chain CDR point mutant (antibody, V domains shown)
VL: DIVMTQSPDSLAVSLGERATINCRSSKSLLHSNGNTYLYWYQQKPGQPPKLLIYRMSNLASGVPDRFSGSGSGTDFTLTISSLQAEDVAVYYCMQHLEYPLTFGQGTKLEIKRT
VH: EVQLVESGGGLVQPGGSLKLSCAASGFAFNTYALYWVRQASGKGLEWVGRIRSKSNNYATYYADSVKDRFTISRDDSKNTAYLQMNSLKTEDTAVYYCTRARFYYSDYGFAMDYWGQGTLVTVSS
B15: h10A11 (IGKV4-1/IGHV3-73 D101E): humanized 10A11 heavy chain CDR point mutant (antibody, V domains shown)
VL: DIVMTQSPDSLAVSLGERATINCRSSKSLLHSNGNTYLYWYQQKPGQPPKLLIYRMSNLASGVPDRFSGSGSGTDFTLTISSLQAEDVAVYYCMQHLEYPLTFGQGTKLEIKRT
VH: EVQLVESGGGLVQPGGSLKLSCAASGFAFNTYALYWVRQASGKGLEWVGRIRSKSNNYATYYADSVKDRFTISRDDSKNTAYLQMNSLKTEDTAVYYCTRARFYYSDYGYAMEYWGQGTLVTVSS
B16: h10A11 (IGKV4-1/IGHV3-73 Y102F): humanized 10A11 heavy chain CDR point mutant (antibody, V domains shown)
VL: DIVMTQSPDSLAVSLGERATINCRSSKSLLHSNGNTYLYWYQQKPGQPPKLLIYRMSNLASGVPDRFSGSGSGTDFTLTISSLQAEDVAVYYCMQHLEYPLTFGQGTKLEIKRT
VH: EVQLVESGGGLVQPGGSLKLSCAASGFAFNTYALYWVRQASGKGLEWVGRIRSKSNNYATYYADSVKDRFTISRDDSKNTAYLQMNSLKTEDTAVYYCTRARFYYSDYGYAMDFWGQGTLVTVSS

The target in the test is T1, human CCR8 (Homo sapiens, UniProt P51685).
T1 construct: expressed in transfected cells; host or cells: 293 cells
Description: Neutralizing activity: inhibition of Ca2+ influx by 200 nM hCCL1 in human CCR8 expressing 293 cells (FLIPR), Test Example 6. Type of test: cell-based. The settings on record: Table 9; WT IC50/mutant IC50; humanized 10A11 heavy chain CDR mutants, IGKV4-1/IGHV3-73. The protocol:
The antibody dilution diluted with a medium was added to human CCR8 expressing 293 cells in which a Ca^2+ indicator was incorporated beforehand, and Ca^2+ influx by addition of 200 nM hCCL1 (manufactured by BioLegend) was measured with FLIPR. […] The evaluation was performed at least three times, and IC50 was expressed as average±SD.
For B1, the IC50 ratio stood at 0.54.

As for B2, the IC50 ratio came to 1.30.

Take B3: the IC50 ratio is on record as 0.30.

B4: the IC50 ratio entry is reported as “n.d. (The n.d. (=not detectable) indicates that the IC50 value of the mutant is 10 nM or more)”.

Turning to B5, the IC50 ratio was determined as 0.07.

Turning to B6, the IC50 ratio was determined as 0.17.

Take B7: the IC50 ratio is recorded as 0.49.

In the case of B8, the IC50 ratio is 0.72.

In the case of B9, the IC50 ratio result is on record as “n.d. (The n.d. (=not detectable) indicates that the IC50 value of the mutant is 10 nM or more)”.

B10: the IC50 ratio is listed as 0.80.

Turning to B11, the IC50 ratio amounted to 0.07.

For the molecule B12, the IC50 ratio is 0.64.

With B13, the IC50 ratio stood at 0.75.

Consider B14, for which the IC50 ratio is 0.55.

B15: the IC50 ratio entry was “n.d. (The n.d. (=not detectable) indicates that the IC50 value of the mutant is 10 nM or more)”.

Turning to B16, the IC50 ratio came out at 0.99.
